The values that follow come from IntAct's records for PubMed 31515488.

The labels stand for the following.
B1: Serine/threonine-protein kinase PAK 5 (Homo sapiens), Q9P286 (parent)
chain: MFGKKKKKIEISGPSNFEHRVHTGFDPQEQKFTGLPQQWHSLLADTANRPKPMVDPSCITPIQLAPMKTIVRGNKPCKETSINGLLEDFDNISVTRSNSLRKESPPTPDQGASSHGPGHAEENGFITFSQYSSESDTTADYTTEKYREKSLYGDDLDPYYRGSHAAKQNGHVMKMKHGEAYYSEVKPLKSDFARFSADYHSHLDSLSKPSEYSDLKWEYQRASSSSPLDYSFQFTPSRTAGTSGCSKESLAYSESEWGPSLDDYDRRPKSSYLNQTSPQPTMRQRSRSGSGLQEPMMPFGASAFKTHPQGHSYNSYTYPRLSEPTMCIPKVDYDRAQMVLSPPLSGSDTYPRGPAKLPQSQSKSGYSSSSHQYPSGYHKATLYHHPSLQSSSQYISTASYLSSLSLSSSTYPPPSWGSSSDQQPSRVSHEQFRAALQLVVSPGDPREYLANFIKIGEGSTGIVCIATEKHTGKQVAVKKMDLRKQQRRELLFNEVVIMRDYHHDNVVDMYSSYLVGDELWVVMEFLEGGALTDIVTHTRMNEEQIATVCLSVLRALSYLHNQGVIHRDIKSDSILLTSDGRIKLSDFGFCAQVSKEVPKRKSLVGTPYWMAPEVISRLPYGTEVDIWSLGIMVIEMIDGEPPYFNEPPLQAMRRIRDSLPPRVKDLHKVSSVLRGFLDLMLVREPSQRATAQELLGHPFLKLAGPPSCIVPLMRQYRHH
B2: Low-density lipoprotein receptor class A domain-containing protein 1 (Homo sapiens), Q5T700 (parent)
chain: MNKVFPQGENGYTAAESKAHPGGEAGGGHLCCSRRGACLSASLLLLLATVAALIALVTILGLPSCTPGAQACITLTNRTGFLCHDQRSCIPASGVCDGVRTCTHGEDEDESLCRDVPQSLPHFLVAHCGDPASWIYSDQKCDGTNNCGDCSDELSPVTVCPPCGPGWWRCPSTFFKYCDCIPRHLCRDHVQHCSDWSDEYACPGP
partner: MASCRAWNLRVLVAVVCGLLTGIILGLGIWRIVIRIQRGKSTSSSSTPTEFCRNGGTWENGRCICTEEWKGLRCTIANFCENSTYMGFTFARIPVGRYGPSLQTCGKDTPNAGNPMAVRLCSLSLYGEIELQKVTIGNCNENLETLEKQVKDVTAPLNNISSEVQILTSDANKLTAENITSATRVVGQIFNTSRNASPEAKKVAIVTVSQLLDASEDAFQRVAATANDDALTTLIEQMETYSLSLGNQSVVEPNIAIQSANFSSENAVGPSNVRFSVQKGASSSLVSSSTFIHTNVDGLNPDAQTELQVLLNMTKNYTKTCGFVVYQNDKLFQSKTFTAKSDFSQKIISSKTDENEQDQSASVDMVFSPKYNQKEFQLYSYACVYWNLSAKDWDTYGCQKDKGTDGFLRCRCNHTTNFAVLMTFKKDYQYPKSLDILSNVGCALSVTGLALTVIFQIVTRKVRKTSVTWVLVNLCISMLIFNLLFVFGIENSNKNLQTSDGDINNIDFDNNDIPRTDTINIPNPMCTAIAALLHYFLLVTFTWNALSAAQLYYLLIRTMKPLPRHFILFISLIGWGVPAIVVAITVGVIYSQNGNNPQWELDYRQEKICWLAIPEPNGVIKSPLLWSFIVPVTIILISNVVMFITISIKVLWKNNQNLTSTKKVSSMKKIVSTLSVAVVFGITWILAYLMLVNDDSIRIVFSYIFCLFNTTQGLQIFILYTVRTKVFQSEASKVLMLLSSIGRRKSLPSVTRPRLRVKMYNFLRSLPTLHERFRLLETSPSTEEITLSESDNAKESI
B3: Syntenin-2 (Homo sapiens), Q9H190 (parent)
chain: MSSLYPSLEDLKVDQAIQAQVRASPKMPALPVQATAISPPPVLYPNLAELENYMGLSLSSQEVQESLLQIPEGDSTAVSGPGPGQMVAPVTGYSLGVRRAEIKPGVREIHLCKDERGKTGLRLRKVDQGLFVQLVQANTPASLVGLRFGDQLLQIDGRDCAGWSSHKAHQVVKKASGDKIVVVVRDRPFQRTVTMHKDSMGHVGFVIKKGKIVSLVKGSSAARNGLLTNHYVCEVDGQNVIGLKDKKIMEILATAGNVVTLTIIPSVIYEHMVKKLPPVLLHHTMDHSIPDA
partner: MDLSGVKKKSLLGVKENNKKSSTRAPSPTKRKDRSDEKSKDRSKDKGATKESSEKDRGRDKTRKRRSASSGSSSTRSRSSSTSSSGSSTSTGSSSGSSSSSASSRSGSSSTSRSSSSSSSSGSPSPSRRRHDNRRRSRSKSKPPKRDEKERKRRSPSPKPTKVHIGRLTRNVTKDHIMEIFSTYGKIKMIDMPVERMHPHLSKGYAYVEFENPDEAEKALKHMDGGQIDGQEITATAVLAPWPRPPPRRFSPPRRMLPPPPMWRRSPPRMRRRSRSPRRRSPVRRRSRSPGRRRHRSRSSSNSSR
B4: Zinc finger protein Aiolos (Homo sapiens), Q9UKT9 (parent)
chain: MEDIQTNAELKSTQEQSVPAESAAVLNDYSLTKSHEMENVDSGEGPANEDEDIGDDSMKVKDEYSERDENVLKSEPMGNAEEPEIPYSYSREYNEYENIKLERHVVSFDSSRPTSGKMNCDVCGLSCISFNVLMVHKRSHTGERPFQCNQCGASFTQKGNLLRHIKLHTGEKPFKCHLCNYACQRRDALTGHLRTHSVEKPYKCEFCGRSYKQRSSLEEHKERCRTFLQSTDPGDTASAEARHIKAEMGSERALVLDRLASNVAKRKSSMPQKFIGEKRHCFDVNYNSSYMYEKESELIQTRMMDQAINNAISYLGAEALRPLVQTPPAPTSEMVPVISSMYPIALTRAEMSNGAPQELEKKSIHLPEKSVPSERGLSPNNSGHDSTDTDSNHEERQNHIYQQNHMVLSRARNGMPLLKEVPRSYELLKPPPICPRDSVKVINKEGEVMDVYRCDHCRVLFLDYVMFTIHMGCHGFRDPFECNMCGYRSHDRYEFSSHIARGEHRALLK
partner: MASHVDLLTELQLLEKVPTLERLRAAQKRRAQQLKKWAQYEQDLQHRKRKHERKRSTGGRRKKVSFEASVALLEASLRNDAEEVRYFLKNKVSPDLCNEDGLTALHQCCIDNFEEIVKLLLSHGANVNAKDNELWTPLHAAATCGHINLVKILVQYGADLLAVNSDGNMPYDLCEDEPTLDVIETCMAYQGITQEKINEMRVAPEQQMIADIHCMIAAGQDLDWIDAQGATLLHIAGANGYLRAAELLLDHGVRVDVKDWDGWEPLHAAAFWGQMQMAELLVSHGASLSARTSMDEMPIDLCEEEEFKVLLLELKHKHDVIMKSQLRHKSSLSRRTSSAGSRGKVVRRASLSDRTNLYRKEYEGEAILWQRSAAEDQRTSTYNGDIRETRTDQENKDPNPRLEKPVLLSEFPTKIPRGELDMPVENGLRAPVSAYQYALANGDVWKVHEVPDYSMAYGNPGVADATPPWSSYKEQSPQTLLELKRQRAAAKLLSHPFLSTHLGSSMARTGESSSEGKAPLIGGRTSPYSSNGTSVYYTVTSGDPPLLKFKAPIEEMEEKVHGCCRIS
B5: Vesicle transport through interaction with t-SNAREs homolog 1B (Homo sapiens), Q9UEU0 (parent)
chain: MASSAASSEHFEKLHEIFRGLHEDLQGVPERLLGTAGTEEKKKLIRDFDEKQQEANETLAEMEEELRYAPLSFRNPMMSKLRNYRKDLAKLHREVRSTPLTATPGGRGDMKYGIYAVENEHMNRLQSQRAMLLQGTESLNRATQSIERSHRIATETDQIGSEIIEELGEQRDQLERTKSRLVNTSENLSKSRKILRSMSRKVTTNKLLLSIIILLELAILGGLVYYKFFRSH
partner: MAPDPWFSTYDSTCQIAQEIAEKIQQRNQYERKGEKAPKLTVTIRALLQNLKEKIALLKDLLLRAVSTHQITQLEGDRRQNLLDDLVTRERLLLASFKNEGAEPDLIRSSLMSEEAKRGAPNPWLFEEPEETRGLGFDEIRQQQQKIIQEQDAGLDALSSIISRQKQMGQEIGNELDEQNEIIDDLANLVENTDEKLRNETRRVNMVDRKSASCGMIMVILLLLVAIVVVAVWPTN
B6: PiggyBac transposable element-derived protein 1 (Homo sapiens), Q96JS3 (parent)
chain: MYEALPGPAPENEDGLVKVKEEDPTWEQVCNSQEGSSHTQEICRLRFRHFCYQEAHGPQEALAQLRELCHQWLRPEMHTKEQIMELLVLEQFLTILPKELQPCVKTYPLESGEEAVTVLENLETGSGDTGQQASVYIQGQDMHPMVAEYQGVSLECQSLQLLPGITTLKCEPPQRPQGNPQEVSGPVPHGSAHLQEKNPRDKAVVPVFNPVRSQTLVKTEEETAQAVAAEKWSHLSLTRRNLCGNSAQETVMSLSPMTEEIVTKDRLFKAKQETSEEMEQSGEASGKPNRECAPQIPCSTPIATERTVAHLNTLKDRHPGDLWARMHISSLEYAAGDITRKGRKKDKARVSELLQGLSFSGDSDVEKDNEPEIQPAQKKLKVSCFPEKSWTKRDIKPNFPSWSALDSGLLNLKSEKLNPVELFELFFDDETFNLIVNETNNYASQKNVSLEVTVQEMRCVFGVLLLSGFMRHPRREMYWEVSDTDQNLVRDAIRRDRFELIFSNLHFADNGHLDQKDKFTKLRPLIKQMNKNFLLYAPLEEYYCFDKSMCECFDSDQFLNGKPIRIGYKIWCGTTTQGYLVWFEPYQEESTMKVDEDPDLGLGGNLVMNFADVLLERGQYPYHLCFDSFFTSVKLLSALKKKGVRATGTIRENRTEKCPLMNVEHMKKMKRGYFDFRIEENNEIILCRWYGDGIISLCSNAVGIEPVNEVSCCDADNEEIPQISQPSIVKVYDECKEGVAKMDQIISKYRVRIRSKKWYSILVSYMIDVAMNNAWQLHRACNPGASLDPLDFRRFVAHFYLEHNAHLSD
partner: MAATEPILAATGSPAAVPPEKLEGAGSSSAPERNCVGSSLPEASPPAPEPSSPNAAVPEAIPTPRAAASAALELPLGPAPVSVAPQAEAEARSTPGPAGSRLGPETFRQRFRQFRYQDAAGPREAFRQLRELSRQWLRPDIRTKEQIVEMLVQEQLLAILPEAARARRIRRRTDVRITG
B7: Caspase-9 (Homo sapiens), P55211 (parent)
chain: MDEADRRLLRRCRLRLVEELQVDQLWDALLSRELFRPHMIEDIQRAGSGSRRDQARQLIIDLETRGSQALPLFISCLEDTGQDMLASFLRTNRQAAKLSKPTLENLTPVVLRPEIRKPEVLRPETPRPVDIGSGGFGDVGALESLRGNADLAYILSMEPCGHCLIINNVNFCRESGLRTRTGSNIDCEKLRRRFSSLHFMVEVKGDLTAKKMVLALLELAQQDHGALDCCVVVILSHGCQASHLQFPGAVYGTDGCPVSVEKIVNIFNGTSCPSLGGKPKLFFIQACGGEQKDHGFEVASTSPEDESPGSNPEPDATPFQEGLRTFDQLDAISSLPTPSDIFVSYSTFPGFVSWRDPKSGSWYVETLDDIFEQWAHSEDLQSLLLRVANAVSVKGIYKQMPGCFNFLRKKLFFKTS

The variants in the first test derive from B1. The following applies: with uxt_human UXT.
In the case of R335P, the “effect of a mutation on the interaction” value is on record as “with no effect”.

In another test the parent is B1. The following applies: with crbn_human CRBN.
With R335P, the “effect of a mutation on the interaction” value is reported as “with no effect”.

In a further test the parent is B1. To be noted: with gcp4_human TUBGCP4, Q9UGJ1.
Chain of gcp4_human TUBGCP4, Q9UGJ1 (Q9UGJ1 whole entry): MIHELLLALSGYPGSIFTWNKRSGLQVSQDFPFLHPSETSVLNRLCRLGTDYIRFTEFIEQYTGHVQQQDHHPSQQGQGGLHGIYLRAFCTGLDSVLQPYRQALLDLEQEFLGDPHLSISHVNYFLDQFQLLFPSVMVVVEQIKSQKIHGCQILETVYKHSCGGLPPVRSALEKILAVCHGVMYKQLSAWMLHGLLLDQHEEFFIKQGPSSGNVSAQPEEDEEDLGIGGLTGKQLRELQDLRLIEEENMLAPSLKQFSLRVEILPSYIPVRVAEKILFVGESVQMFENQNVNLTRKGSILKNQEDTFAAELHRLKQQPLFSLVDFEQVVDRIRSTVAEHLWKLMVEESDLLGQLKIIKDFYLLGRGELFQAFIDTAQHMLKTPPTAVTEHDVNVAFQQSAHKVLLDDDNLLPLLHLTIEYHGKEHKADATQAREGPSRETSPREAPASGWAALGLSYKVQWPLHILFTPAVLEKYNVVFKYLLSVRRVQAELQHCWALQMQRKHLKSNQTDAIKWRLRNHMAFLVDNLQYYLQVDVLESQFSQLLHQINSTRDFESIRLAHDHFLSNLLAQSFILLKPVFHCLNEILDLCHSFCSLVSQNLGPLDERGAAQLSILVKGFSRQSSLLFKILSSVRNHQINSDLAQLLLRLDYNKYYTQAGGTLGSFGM
For the variant R335P, the “effect of a mutation on the interaction” value is “with no effect”.

In a further test the parent is B2. To be noted: with agrg7_human ADGRG7, Q96K78.
For the variant E108K, the “effect of a mutation on the interaction” value is given as “with no effect”.

Variants of B3 are the subject of another test. To be noted: with rnps1_human RNPS1, Q15287.
Regarding G225R, the “effect of a mutation on the interaction” value is “disrupting interaction strength”.

For the variant V182M, the “effect of a mutation on the interaction” value was “with no effect”.

With G242R, the “effect of a mutation on the interaction” value was “disrupting interaction strength”.

Variants of B4 are the subject of the next test. To be noted: with pp16b_human PPP1R16B.
In the case of A24V, the “effect of a mutation on the interaction” value is “with no effect”.

On to N119D, for which the “effect of a mutation on the interaction” value is “with no effect”.

In a further test the parent is B5. The following applies: with stx8_human STX8, Q9UNK0.
As to R124Q, the “effect of a mutation on the interaction” value is listed as “with no effect”.

Regarding R176H, the “effect of a mutation on the interaction” value is given as “with no effect”.

The variants in the next test derive from B6. The following applies: with scnd1_human SCAND1, P57086.
I678V: the “effect of a mutation on the interaction” value is “with no effect”.

Q248E: the “effect of a mutation on the interaction” value is “with no effect”.

In the case of N398S, the “effect of a mutation on the interaction” value is reported as “with no effect”.

With P256L, the “effect of a mutation on the interaction” value was “with no effect”.

Turning to G244E, the “effect of a mutation on the interaction” value is on record as “with no effect”.

The next test covers variants of B7. The following applies: with birc2_human BIRC2, Q13490.
Chain of birc2_human BIRC2, Q13490 (Q13490 whole entry): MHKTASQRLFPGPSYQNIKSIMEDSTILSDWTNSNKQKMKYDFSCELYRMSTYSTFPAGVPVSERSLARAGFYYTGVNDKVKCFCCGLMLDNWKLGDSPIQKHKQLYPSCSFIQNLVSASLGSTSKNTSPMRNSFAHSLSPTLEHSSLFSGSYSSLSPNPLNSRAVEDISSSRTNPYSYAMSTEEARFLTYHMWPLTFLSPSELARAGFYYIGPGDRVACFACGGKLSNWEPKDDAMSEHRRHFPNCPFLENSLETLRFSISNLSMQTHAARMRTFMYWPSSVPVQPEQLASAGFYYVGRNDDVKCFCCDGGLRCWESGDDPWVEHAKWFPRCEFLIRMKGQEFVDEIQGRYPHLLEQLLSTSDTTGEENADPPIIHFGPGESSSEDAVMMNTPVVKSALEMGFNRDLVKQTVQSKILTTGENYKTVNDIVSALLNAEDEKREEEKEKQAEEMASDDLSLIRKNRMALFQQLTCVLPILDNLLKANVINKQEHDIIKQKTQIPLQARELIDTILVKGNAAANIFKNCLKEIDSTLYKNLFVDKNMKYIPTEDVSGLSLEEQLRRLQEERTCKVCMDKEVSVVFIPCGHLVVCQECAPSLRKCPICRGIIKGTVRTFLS
In the case of T366N, the “effect of a mutation on the interaction” value was “disrupting interaction strength”.

Take R178C: the “effect of a mutation on the interaction” value was “disrupting interaction strength”.

Consider Q221R, for which the “effect of a mutation on the interaction” value was “with no effect”.

For the variant H237P, the “effect of a mutation on the interaction” value is reported as “disrupting interaction strength”.

For R173H, the “effect of a mutation on the interaction” value is “with no effect”.

Turning to P336S, the “effect of a mutation on the interaction” value is recorded as “with no effect”.

Variants of B7 are the subject of a further test. The following applies: with xiap_human XIAP.
Consider Q221R, for which the “effect of a mutation on the interaction” value is on record as “with no effect”.

For P336S, the “effect of a mutation on the interaction” value is “with no effect”.
